Results as given in patent US20070031445A1 (BOARD OF REGENTS OF THE UNIVERSITY OF NEBRASKA, published 2007).
Where no end group is shown, it is not given here. [ ]: non-standard residue; d: D form.

B1: IPQSLDSWWTSLRVRRYSFKPMPLaR (RVRR furin-sensitive-linked C5a-active construct) (peptide)
peptide: IPQSLDSWWTSLRVRRYSFKPMPL[dA]R
notes: Synthetic peptide; also called RVRR-containing construct
B2: natural C5a (ligand, UniProt P01031 678-751, looked up)
chain: TLQKKIEEIAAKYKHSVVKKCCYDGACVNNDETCEQRAARISLGPRCIKAFTECCVVASQLRANISHKDMQLGR
modifications: 125I label on the tracer form used in the competition assay
notes: C5a is only a fragment of it
B3: IPQSLDSWWTSLYSFKPMPLaR (HBsAg CTL epitope attached directly to N-terminus of the C5a agonist) (peptide)
peptide: IPQSLDSWWTSLYSFKPMPL[dA]R
notes: Synthetic peptide; also called C5a-active construct without linker
B4: IPQSLDSWWTSLRRYSFKPMPLaR (double-Arg-linked C5a-active construct) (peptide)
peptide: IPQSLDSWWTSLRRYSFKPMPL[dA]R
notes: Synthetic peptide; also called RR-containing construct
B5: C5a C-terminal decapeptide agonist analog YSFKPMPLaR (peptide)
peptide: YSFKPMPL[dA]R
notes: Synthetic peptide; also called C5a agonist; peptide (2)

How the values were obtained:
[1] = biological target: T1, C5a receptor (C5aR) expressed on the surface of human PMNs (human, UniProt P21730 1-350); assay: cell-based or functional assay
T1 sequence (looked up): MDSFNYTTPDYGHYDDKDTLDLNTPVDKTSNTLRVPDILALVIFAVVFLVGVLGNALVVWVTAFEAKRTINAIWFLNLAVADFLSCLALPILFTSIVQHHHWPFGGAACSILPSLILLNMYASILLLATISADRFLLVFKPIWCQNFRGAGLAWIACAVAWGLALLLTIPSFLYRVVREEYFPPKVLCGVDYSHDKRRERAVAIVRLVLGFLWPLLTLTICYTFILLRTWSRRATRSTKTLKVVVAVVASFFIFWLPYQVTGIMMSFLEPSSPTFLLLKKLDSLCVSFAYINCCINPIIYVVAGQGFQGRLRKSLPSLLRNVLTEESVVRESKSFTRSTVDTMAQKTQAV

[2] = biological target: T1, C5a receptor (C5aR) expressed on the …; assay: cell-based or functional assay; remark: listed apart in the source
[3] = biological target: T1, C5a receptor (C5aR) expressed on the …; assay: competition with 125I-C5a on intact human PMNs
Protocol: Statistical analysis of the values obtained from pharmacologic assays was performed using one-way analysis of variance (ANOVA).

[4] = biological target: T1, C5a receptor (C5aR) expressed on the …; assay: competition with 125I-C5a on intact human PMNs (column headed EC50; 50% inhibition of 125I-C5a binding)

Row | Binder | EC50, smooth muscle contraction of human umbilical artery [1] [µM] | pD2, smooth muscle contraction of human umbilical artery [1] | EC50, MPO release from human PMNs [2] [µM] | pD2 (-log IC50 (M)) [3] | IC50 [4] [µM] | pD2, MPO release from human PMNs [2]
1 | YSFKPMPL[dA]RRRIPQSLDSWWTSL (Synthetic peptide) [YSFKPMPLa[…] (C5a-inactive construct, C-terminus of agonist blocked by the HBsAg CTL epitope)] | 39.4 | 4.41 -log EC50 (M) | > 1000 | 3.33 -log IC50 (M) | 465 | 
2 | IPQSLDSWWTSLRRYSFKPMPL[dA]RG (Synthetic peptide) | 6.78 | 5.17 -log EC50 (M) | 2.56 | 4.77 -log IC50 (M) | 17 | 5.59 -log EC50 (M)
3 | B1 | 0.18 | 6.67 -log EC50 (M) | 2.15 | 6.28 -log IC50 (M) | 0.529 | 5.61 -log EC50 (M)
4 | B2 | 0.002 |  | 0.003 | 9.43 -log IC50 (M) | 0.0004 | 
5 | B3 | 0.21 | 6.68 -log EC50 (M) | 1.58 | 5.43 -log IC50 (M) | 3.69 | 5.8 -log EC50 (M)
6 | B4 | 0.161 | 6.79 -log EC50 (M) | 0.54 | 6.38 -log IC50 (M) | 0.416 | 6.27 -log EC50 (M)
7 | B5 | 0.01 |  |  | 5.63 -log IC50 (M) | 2.34 | 
